{"source": "IntAct's records for PubMed 28017832", "parents": {"B1": {"name": "Vacuolar protein sorting-associated protein 33B (Homo sapiens), Q9H267 (parent)", "chain": "MAFPHRPDAPELPDFSMLKRLARDQLIYLLEQLPGKKDLFIEADLMSPLDRIANVSILKQHEVDKLYKVENKPALSSNEQLCFLVRPRIKNMRYIASLVNADKLAGRTRKYKVIFSPQKFYACEMVLEEEGIYGDVSCDEWAFSLLPLDVDLLSMELPEFFRDYFLEGDQRWINTVAQALHLLSTLYGPFPNCYGIGRCAKMAYELWRNLEEEEDGETKGRRPEIGHIFLLDRDVDFVTALCSQVVYEGLVDDTFRIKCGSVDFGPEVTSSDKSLKVLLNAEDKVFNEIRNEHFSNVFGFLSQKARNLQAQYDRRRGMDIKQMKNFVSQELKGLKQEHRLLSLHIGACESIMKKKTKQDFQELIKTEHALLEGFNIRESTSYIEEHIDRQVSPIESLRLMCLLSITENGLIPKDYRSLKTQYLQSYGPEHLLTFSNLRRAGLLTEQAPGDTLTAVESKVSKLVTDKAAGKITDAFSSLAKRSNFRAISKKLNLIPRVDGEYDLKVPRDMAYVFGGAYVPLSCRIIEQVLERRSWQGLDEVVRLLNCSDFAFTDMTKEDKASSESLRLILVVFLGGCTFSEISALRFLGREKGYRFIFLTTAVTNSARLMEAMSEVKA", "partner": "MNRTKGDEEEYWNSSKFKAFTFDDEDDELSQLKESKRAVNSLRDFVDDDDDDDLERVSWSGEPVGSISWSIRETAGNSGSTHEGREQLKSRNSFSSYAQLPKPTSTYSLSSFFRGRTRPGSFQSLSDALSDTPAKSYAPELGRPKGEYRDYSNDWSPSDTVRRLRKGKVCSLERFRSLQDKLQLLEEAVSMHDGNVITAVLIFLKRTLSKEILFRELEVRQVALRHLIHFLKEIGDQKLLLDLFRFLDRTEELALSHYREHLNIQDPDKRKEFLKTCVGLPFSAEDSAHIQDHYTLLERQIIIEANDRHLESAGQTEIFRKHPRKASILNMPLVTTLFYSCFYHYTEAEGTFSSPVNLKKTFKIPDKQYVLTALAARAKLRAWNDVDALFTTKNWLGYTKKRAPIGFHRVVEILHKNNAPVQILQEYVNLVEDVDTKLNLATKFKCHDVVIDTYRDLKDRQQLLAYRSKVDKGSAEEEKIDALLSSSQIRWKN"}}, "data": [{"variants_of": "B1", "details": "with spe39_human VIPAS39, Q9H9C1", "values": [{"variant": "G131E", "effect of a mutation on the interaction": "decreasing interaction strength"}]}]}
